The target in the test is T1, OB-Ra (Mus musculus, UniProt P48356).
T1 construct: expressed in transfected cells; host or cells: COS-7
T1 sequence (P48356 22-894 isoform P48356-2 limits assumed): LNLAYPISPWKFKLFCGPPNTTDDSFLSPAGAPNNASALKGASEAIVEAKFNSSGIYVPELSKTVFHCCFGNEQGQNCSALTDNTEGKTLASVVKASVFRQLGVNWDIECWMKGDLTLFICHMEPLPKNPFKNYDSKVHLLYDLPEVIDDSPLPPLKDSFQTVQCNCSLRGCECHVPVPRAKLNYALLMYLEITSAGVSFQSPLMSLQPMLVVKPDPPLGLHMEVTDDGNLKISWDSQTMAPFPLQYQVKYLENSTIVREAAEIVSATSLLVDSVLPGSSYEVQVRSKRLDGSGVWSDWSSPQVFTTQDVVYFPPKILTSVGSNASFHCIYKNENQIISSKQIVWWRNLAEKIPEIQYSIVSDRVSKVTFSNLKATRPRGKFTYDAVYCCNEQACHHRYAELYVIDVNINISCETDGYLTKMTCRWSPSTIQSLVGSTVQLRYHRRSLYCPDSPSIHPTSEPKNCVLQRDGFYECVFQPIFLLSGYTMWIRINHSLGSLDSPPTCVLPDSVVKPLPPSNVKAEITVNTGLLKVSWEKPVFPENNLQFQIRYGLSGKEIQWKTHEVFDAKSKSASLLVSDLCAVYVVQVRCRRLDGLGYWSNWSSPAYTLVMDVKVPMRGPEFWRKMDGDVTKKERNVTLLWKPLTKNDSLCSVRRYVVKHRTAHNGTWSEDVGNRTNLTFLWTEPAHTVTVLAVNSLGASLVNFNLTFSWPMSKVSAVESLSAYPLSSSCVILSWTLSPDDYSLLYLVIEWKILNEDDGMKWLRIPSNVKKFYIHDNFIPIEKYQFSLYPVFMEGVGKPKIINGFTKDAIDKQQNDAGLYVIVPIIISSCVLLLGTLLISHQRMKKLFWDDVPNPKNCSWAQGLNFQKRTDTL
The test can be described thus: Inhibition of AP-OB fusion protein binding by COS-7 cells transfected with OB receptor. To be noted: 1 nM human AP-OB, peptide up to 300 μM. The text has this:
Initial experiments to determine the mechanism of action of LEP(116–130) utilized two highly sensitive in vitro bioassays routinely used to assess leptin binding and receptor activation (see e.g., White, et al., 1997. Proc. Natl. Acad. Sci. U.S.A. 94: 10657–10662). An alkaline phosphatase (“AP”)-leptin (“OB”) fusion protein (“AP-OB”) was used to measure inhibition of leptin binding in the absence or presence of recombinant mouse leptin (positive control) or peptide, by COS-7 cells transfected with the long (signaling) form of the mouse OB receptor (“OB-RL”). Signal transduction assays were done in GT1–7 cells cotransfected with AP reporter and OB-RL constructs. Secreted alkaline phosphatase (“SEAP”) activity in response to stimulation with mouse leptin or peptide was measured by chemiluminescence.
Two days after transfection, COS-7 cells were incubated with 1 nm human AP-OB fusion protein and bound AP activity was determined by chemiluminescence using the Great EscApe alkaline phosphatase detection kit as described by the manufacturer (CLON-TECH).
COS-7 cells were transfected with expression vector for OB-Ra. Two days after transfection, the cells were incubated with 1 nM human AB-OB fusion protein in the absence or presence of 30 nM mouse leptin, 300 μM LEP(116–130) or LEP(146–160). Bound AP activity was determined as has been described. See., e.g., Kamohara et al., 1997 Nature 389: 374–377.

Consider “A L S R L Q G S L Q D I L Q Q (ALSRLQGSLQDILQQ) [LEP(146–160)]”, for which the “Inhibition of AP-OB fusion protein binding” value was “neither LEP(116–130) nor LEP(146–160), at 300 μM, were able to inhibit AP-OB binding”. Also, under “listed as LEP(145–160)”, the “Inhibition of AP-OB fusion protein binding” value was “unable to inhibit AP-OB binding”.

For the origin of these results see patent US7208572B2, “Leptin-related peptides” (Albany Medical College, priority 1998, dated 2007).
